Experimental data reported in the DeepSol protein solubility set.

experiment: soluble on expression in E. coli; label from the status in PepcDB or PDB records

Sequence | soluble on expression in E. coli
MGSDKIHHHHHHMHILIYSYNYHPEPIGIAPLMTELAEGLVNRGHEVRVITGMPNYPEREIYDGYRGQWYVTEQKNGVTIQRSYIRIKSKPNLLDRLLLELSFIFTSLPQAFRGERPDVMILTVPPLLGILPATIFGWLYNCPIVLNVQDILPEAAVRIGLLKNKWMIRTLAALEKFAYRTAHTISVIADGFRENLVNKGVPVNKIVCIPNWVNVNFIHPLPKQNNSWISSHQLDGKFIVLYSGNIALTQGLETVIEAAVCLRHIKEIVFVIVGESRALQRLQEYCLLHGADNVLLLPLQPREKLPEMLAAADVGLIVQKRNIISFNMPSKIPLLLASGRPIVGSVPATGTAARAIKLSGGGIIVEPESPDAMAAAVHDLYANPTFCTRLGNAGRQFAEENYSLEQALDRYEWLFYHILANRKSNVGILPKLDSKESVVDA | not soluble
MGSDKIHHHHHHMHMRVLIINTSERIGGAAIAANRLMEALKNNGIKTKMLVRDKQTDQISVVELKKSWWKVWQFIWERVVIWQANHFKKHNLFAVDIANTGTNITALPEFTQADVIHLHWINQGMLSLTDIRRIIQSGKPIVWTMHDMWPFTGICHYAGDCDKYATQCHNCPQLYKGSRKDIAYRTFQKKKKLFEGAQITFVACSRWLESLAKKSDLIKGQTITNIPNAINTNLFKPRDKKQAREKCHLPQDKKLLLFGSVKITDKRKGIDYLVSACKQIASSYPDFSKELGVVVFGNQAEQYASLFPFPIYPMNYVSNEKELVDIYNAVDLYVTPSLQDNLPNTIVEAMACGIPCIGFNVGGIPQMIDHLHNGYVAEYQSSKDLANGIHWALTEGEYESLSEEACRKAVSSYSESTIAKKYVEIYNKITGNHA | not soluble
MGSDKIHHHHHHMHNSLVRELVQAGRRTSCLGLTNGKMGIVIALFRYARLSGELTCEDVGCELLDEIYEHLDSSIPISFGSGLWGIGWGIEYLIQNSYMEGDADEVLKDIDQCAARCIHAYGMSGLSLNNGIVGLGRYILIRIIPTFLKGDTVSSAFLKEYLIYLIDWLEERLEYTNESIDDLLDFLFDLYPTGFYRTKVSVLIEKCMNRYNL | not soluble
MGSDKIHHHHHHMHTDVNQLFAALWDDYVEMTPSAAKVHQLLAKGETIINDHIALRTFNIAKVNLSVLAKHFESLGYVACGDYDFEAKKLKAKHFEHPDPTQPKVFISELMVEAFSPELQAIVHGLVEQVDEAATTADNFLYSGRHWELDYATYEQLLAESEYAAWVAAFGYRANHFTVSINHLPGYNTILEVNETLKQGDFVLNSVGGEVKGSADVLLEQSSTMADKVNVAFKDVQKTIPSCFYEFALRYPKADGELYTGFVAASADKIFESTNNAG | not soluble
MGSDKIHHHHHHMIDFLDVQKETPRIRIAIDRVGVKNIKFPLKIHDDFAFLTLNLFVDVPADRKGADMSRAVESIQKVINAGSYGERIGDIGIAICDEALSRFNYSEKAQCEVNIQYYRRSGERYLEYRMYVETAKDRKQIMKNEIGISYVTMTACPCAMETTRALISMDNPDISDAISAIPTITHNQRNVTKLTVDNRSKMITVWDLADVMERVQGKPLDSLLKRVEEGRLVYSAHRNPKFVEDVVREIAYEAARVLGVPDEATIKVSSESDESIHPHNAYAEIDTTAGELRKLHLH | not soluble
MGSDKIHHHHHHMIDLHCHTTASDGVVTPSNVIRQASRKGIAVLAIADHDTVNGLDEAAGAAEKEGICLIPAIELSVAFPKGDFHLLGYGIQYKNENFRNKLAQLRTIREERIFRIIERLKRYGLNLTHEDLQNESQGDAPGKAHVARVLVRKRYASNFNVACKTYLNEGMPGYVPKEKLSLESACELINNAGGLSVLAHPKSLNGENHEEYERIIQMCVSHGLAGIEVYASLHDNQDVRLFLELARRHRLIATGGSDFHGDNGACLGYYGHRRPVPESCSQPLLQKISQNKT | not soluble
MGSDKIHHHHHHMIDLRSDTVTKPTEEMRKAMAQAEVGDDVYGEDPTINELERLAAETFGKEAALFVPSGTMGNQVSIMAHTQRGDEVILEADSHIFWYEVGAMAVLSGVMPHPVPGKNGAMDPDDVRKAIRPRNIHFPRTSLIAIENTHNRSGGRVVPLENIKEICTIAKEHGINVHIDGARIFNASIASGVPVKEYAGYADSVMFCLSKGLCAPVGSVVVGDRDFIERARKARKMLGGGMRQAGVLAAAGIIALTKMVDRLKEDHENARFLALKLKEIGYSVNPEDVKTNMVILRTDNLKVNAHGFIEALRNSGVLANAVSDTEIRLVTHKDVSRNDIEEALNIFEKLFRKFS | soluble
